B1: Nanobody 7B2 (VHH)
VHH: EVQLVESGGGLVQAGDSLRLSCAASGRTFSSYAMGWFRQAPGKEREFVAAISWSDGSTYYADSVKGRFTISRDNAKNTVYLQMNSLKPEDTAVYYCAADLTSTNPGSYIYIWAYDYWGQGTQVTVSS
notes: also called PMP7B2; PRSV7B2
B2: Nanobody 1G3 (VHH)
VHH: EVQLVESGGGLVQAGGSLRLSCEASGRTYSRYGMGWFRQAPGKEREFVAAVSRLSGPRTVYADSVKGRFTISRDNAENTVYLQMNSLKPEDTAVYTCAAELTNRNSGAYYYAWAYDYWGQGTQVTVSS
notes: also called PMP1G3; PRSV1G3

Legend:
[1] = target: T1, protein F of hRSV strain Long, on virus (inactivated hRSV Long, Hytest #8RSV79; RSV Long LM-2, ATCC VR-26) (human respiratory syncytial virus, …, UniProt P12568 26-574); experiment: cell-based or functional assay
[2] = target: T2, protein F of hRSV strain B-1 (on RSV B-1-infected Hep2 cells and on virus) (human respiratory syncytial virus, …, UniProt P13843 26-574); experiment: cell-based or functional assay
[3] = target: T1, protein F of hRSV strain Long, on virus …; experiment: cell-based or functional assay; remark: listed apart in the source
[4] = target: T2, protein F of hRSV strain B-1 (on RSV …); experiment: cell-based or functional assay; remark: listed apart in the source
[5] = target: T3, hRSV FTM-NN (membrane anchorless form of the Long fusion protein, 70 kDa) (human respiratory syncytial virus, …, UniProt P12568 26-524); experiment: ELISA on immobilized FTM-NN, periplasmic extract 1:10
T3 construct: also called FTM-NN (Long); hRSV FTM-protein

[6] = target: T3, hRSV FTM-NN (membrane anchorless form …); experiment: SPR (Biacore), FTM-NN amine-coupled on CM5 chip, 1:1 Langmuir fit
[7] = target: T2, protein F of hRSV strain B-1 (on RSV …); experiment: cell ELISA on RSV B-1-infected Hep2 cells, periplasmic extract 1:50
[8] = target: T2, protein F of hRSV strain B-1 (on RSV …); experiment: cell ELISA on RSV B-1-infected Hep2 cells, periplasmic extract 1:200
[9] = target: T3, hRSV FTM-NN (membrane anchorless form …); experiment: competition ELISA on FTM-NN, competitor Synagis Mab, purified Nanobody

Row | Binder | RSV micro-neutralization on Long, IC50 [1] | micro-neutralization of RSV B-1 [2] | Neutralization Long IC50 [3] | Neutralization B-1 IC50 [4] | Binding Long 1:10 PE (Fold blanc) [5] | Kd [6] | koff [6] | kon [6] | Binding Hep2-B-1 (% control) 1:50 PE [7] | Binding Hep2-B-1 (% control) 1:200 PE [8] | IC50 [9]
1 | B1 | 88 nM | > 10 µM | 108 nM | > 10 µM | 4.7 fold blanc | 1.5 nM | 0.00049 s⁻¹ | 340000 M⁻¹ s⁻¹ | 61 % control | 41 % control | 1.93 nM
2 | B2 |  | > 10 µM | 413 nM | > 10 µM | 3.4 fold blanc |  |  |  | 52 % control | 45 % control | 72.5 nM
